According to publication PMC11557873 (Nature Communications, 2024):

T1: hgp130.hFc (human gp130 aa E23-E619 with a hFc tag) (human, UniProt P40189 23-619)
T1 sequence: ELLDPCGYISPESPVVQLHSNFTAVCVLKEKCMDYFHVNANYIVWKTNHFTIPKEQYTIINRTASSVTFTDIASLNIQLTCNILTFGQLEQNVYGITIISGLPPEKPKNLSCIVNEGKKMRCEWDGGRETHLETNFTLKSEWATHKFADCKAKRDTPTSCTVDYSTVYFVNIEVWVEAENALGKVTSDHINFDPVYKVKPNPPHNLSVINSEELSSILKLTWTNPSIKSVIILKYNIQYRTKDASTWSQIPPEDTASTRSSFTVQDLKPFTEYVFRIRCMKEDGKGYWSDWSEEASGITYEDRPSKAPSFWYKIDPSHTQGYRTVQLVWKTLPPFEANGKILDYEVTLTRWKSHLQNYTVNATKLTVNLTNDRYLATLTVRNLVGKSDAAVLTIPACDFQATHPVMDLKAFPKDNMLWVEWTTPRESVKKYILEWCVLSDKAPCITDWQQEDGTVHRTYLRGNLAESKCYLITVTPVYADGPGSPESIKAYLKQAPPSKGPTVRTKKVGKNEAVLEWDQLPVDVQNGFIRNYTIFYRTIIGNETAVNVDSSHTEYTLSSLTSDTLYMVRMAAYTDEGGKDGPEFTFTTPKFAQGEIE


Target: T1, hgp130.hFc (human gp130 aa E23-E619 …)
Experiment: SPR

Binder | Kd [µM] | binding result
short form hOSM WT (hOSM_short, aa A26-R221), C-terminal myc-myc-His (ligand) AAIGSCSKEYRVLLGQLQKQTDLMQDTSRLLDPYIRIQGLDVPKLREHCRERPGAFPSEETLRGLGRRGFLQTLNATLGCVLHRLADLEQRLPKAQDLERSGLNIEDLEKLQMARPNILGLRNNIYCMAQLLDNSDTAEPTKAGRGASQPPTPTPASDAFQRKLEGCRFLHGYHRFMHSVGRVFSKWGESPNRSRR | 0.00858 | 
short form hOSM mutant V37R (ligand) AAIGSCSKEYRRLLGQLQKQTDLMQDTSRLLDPYIRIQGLDVPKLREHCRERPGAFPSEETLRGLGRRGFLQTLNATLGCVLHRLADLEQRLPKAQDLERSGLNIEDLEKLQMARPNILGLRNNIYCMAQLLDNSDTAEPTKAGRGASQPPTPTPASDAFQRKLEGCRFLHGYHRFMHSVGRVFSKWGESPNRSRR |  | binds

The next lines start with the values.

Kd [µM] | binding result | Binder
0.0409 |  | short form hOSM variant Δ(A26-E34)/C152S (aa Y35-R221) (ligand) YRVLLGQLQKQTDLMQDTSRLLDPYIRIQGLDVPKLREHCRERPGAFPSEETLRGLGRRGFLQTLNATLGCVLHRLADLEQRLPKAQDLERSGLNIEDLEKLQMARPNILGLRNNIYSMAQLLDNSDTAEPTKAGRGASQPPTPTPASDAFQRKLEGCRFLHGYHRFMHSVGRVFSKWGESPNRSRR
0.069 |  | short form hOSM variant C31S/C152S (ligand) AAIGSSSKEYRVLLGQLQKQTDLMQDTSRLLDPYIRIQGLDVPKLREHCRERPGAFPSEETLRGLGRRGFLQTLNATLGCVLHRLADLEQRLPKAQDLERSGLNIEDLEKLQMARPNILGLRNNIYSMAQLLDNSDTAEPTKAGRGASQPPTPTPASDAFQRKLEGCRFLHGYHRFMHSVGRVFSKWGESPNRSRR
